Legend:
[1] = molecular target: PDZ domain of the human protein tyrosine phosphatase non-receptor type 3 (PTPN3-PDZ) (human) (UniProt P26045); assay: AUC; sedimentation velocity, PTPN3-PDZ alone at 25 μM, 20 °C, 42000 rpm; monomer and dimer peaks
p38γ PBM (Homo sapiens) = conditions: cited from earlier work

Chain of PTPN4 PDZ (P29074 514-592): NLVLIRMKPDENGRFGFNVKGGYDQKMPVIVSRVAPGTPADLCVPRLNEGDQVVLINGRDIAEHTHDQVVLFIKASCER

stoichiometry N [1]	Substance	Kd (p38γ PBM (Homo sapiens)) [µM]
2	PDZ domain of the human protein tyrosine phosphatase non-receptor type 3 (PTPN3-PDZ) (from UniProt P26045-1 504-913) (domain or fragment)	
	PTPN4 PDZ (from UniProt P29074)	1.6
